Read-outs that look alike come from different tables or passages of the source. Positions of bridges follow the written chain, without caps; N, C: chain ends. Residues, ends and D or L forms follow the SMILES beside them. Chains are numbered I, II in the order given. No end group written: not given here. PEG = not defined here
Experiments:
CD40L-CD40 interaction = molecular target: T1, CD40L-CD40 interaction (Homo sapiens, UniProt P29965); assay: Chemiluminescent proximity assay (Alphascreen); format: binding; conditions: Alphascreen proximity assay; monomeric and dimeric peptides (Table 5); read-out: EC50
T1 sequence (P29965 113-261 limits assumed): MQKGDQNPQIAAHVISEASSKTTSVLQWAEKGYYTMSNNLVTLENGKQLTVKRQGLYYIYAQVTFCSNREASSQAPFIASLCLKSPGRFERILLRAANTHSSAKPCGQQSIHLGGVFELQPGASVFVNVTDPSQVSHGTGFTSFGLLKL
Procedure: In one example, the Alphascreen assay (PerkinElmer) was employed according to the manufacturer's instructions.
Homodimers and heterodimers were also assayed by chemiluminescent proximity assay for their ability to inhibit CD40L-CD40 interaction.

TNFα-induced cytoxicity = assay: TNFα-induced cytotoxicity control assay; format: cell-based; conditions: in words; specificity control
Procedure: As a control in these assays, LPS-induced expression of CD86 mediated by the Toll-like receptors TLR 2/4, and TNFα-induced cytoxicity, were also assayed to exclude effects mediated by ligands other than CD40L.

CD40 ligand [1] = molecular target: T2, CD40 ligand (UniProt P29965 108-261, limits assumed); assay: Alphascreen, PEGylated peptide, inhibition of CD40L/CD40-Fc
T2 construct: Used immobilised, soluble, or biotinylated on streptavidin beads; also called CD154; soluble CD40L
T2 sequence (looked up): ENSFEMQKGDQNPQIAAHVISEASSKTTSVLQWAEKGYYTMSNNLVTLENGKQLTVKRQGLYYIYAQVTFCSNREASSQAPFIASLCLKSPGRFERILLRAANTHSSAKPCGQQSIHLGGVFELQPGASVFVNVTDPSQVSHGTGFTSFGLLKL

CD40 ligand, P29965 [2] = molecular target: T3, CD40 ligand, P29965; assay: Alphascreen, unmodified peptide, inhibition of CD40L/CD40-Fc
T3 chain: T2 sequence (looked up)

CD40 ligand, P29965 [3] = molecular target: T3, CD40 ligand, P29965; assay: Octet Red label-free (BLI)
CD40 ligand [4] = molecular target: T2, CD40 ligand; assay: Octet Red label-free (BLI)
CD40 ligand [5] = molecular target: T2, CD40 ligand; assay: phage-displayed peptide on bound CD40L, soluble CD40L as competitor
CD40 ligand [6] = molecular target: T2, CD40 ligand; assay: Alphascreen, unmodified peptide, inhibition of CD40L/CD40-Fc
CD40 ligand [7] = molecular target: T2, CD40 ligand; assay: Octet Red label-free (BLI); remark: listed apart in the source
CD40 ligand [8] = molecular target: T2, CD40 ligand; assay: Alphascreen proximity assay, peptide titrated against 0.75nM CD40L; blocked interaction: CD40L with CD40
CD40 ligand [9] = molecular target: T2, CD40 ligand; assay: cell-based or functional assay
CD40 ligand [10] = molecular target: T2, CD40 ligand; assay: Alphascreen proximity assay, inhibition of CD40L-CD40
CD40 ligand [11] = molecular target: T2, CD40 ligand; assay: Alphascreen proximity assay, peptide titrated; blocked interaction: CD40L with CD40
CD40 ligand [12] = molecular target: T2, CD40 ligand; assay: cell-based or functional assay; remark: listed apart in the source
CD40 ligand [13] = molecular target: T2, CD40 ligand; assay: Alphascreen proximity assay (1hr), peptide titrated against 0.75nM CD40L; blocked interaction: CD40L with CD40; signal falls from about 27500 to about 5000 units
CD40 ligand [14] = molecular target: T2, CD40 ligand; assay: Alphascreen proximity assay, peptide dimer titrated against 0.75nM CD40L; blocked interaction: CD40L with CD40; signal falls from about 23000 to about 4000 units
CD40 ligand [15] = molecular target: T2, CD40 ligand; assay: from the KD values of Table 2 (Octet Red)
CD40 ligand [16] = molecular target: T2, CD40 ligand; assay: Alphascreen proximity assay (1hr), peptide titrated against 0.75nM CD40L; blocked interaction: CD40L with CD40; signal falls from about 21000 to about 3000 units
CD40 ligand [17] = molecular target: T2, CD40 ligand; assay: Alphascreen proximity assay, peptide dimer titrated against 0.75nM CD40L; blocked interaction: CD40L with CD40; signal falls from about 12500 to about 4000 units

In the case of `CC[C@H](C)[C@H](NC(=O)[C@H](CO)NC(=O)[C@H](Cc1ccccc1)NC(=O)[C@@H](NC(=O)[C@H](CC(N)=O)NC(=O)[C@H](CCCCN)NC(=O)[C@@H](NC(=O)[C@H](CO)NC(=O)[C@H](Cc1ccccc1)NC(=O)[C@@H]1CCCN1C(=O)[C@@H](N)Cc1c[nH]cn1)[C@@H](C)CC)C(C)C)C(=O)N[C@@H](Cc1c[nH]c2ccccc12)C(=O)N[C@@H](CC(N)=O)C(=O)N[C@@H](Cc1ccccc1)C(=O)N[C@@H](Cc1ccccc1)C(=O)N[C@@H](CO)C(=O)N[C@H](C(=O)N[C@@H](Cc1ccc(O)cc1)C(=O)O)C(C)C` [CD40L M1_6s] (H-HPFSIKNVFSIWNFFSVY-OH; N-terminus and C-terminus assumed), the EC50 (CD40L-CD40 interaction) is reported as 0.122 to 0.323 nM and the “significant inhibition of TNFα-induced cell death / cytoxicity” value (TNFα-induced cytoxicity) is reported as “lack of inhibition and none”.

In the case of {PEG}-PFTWRPTIFWIIQLIVYMRHF (reading uncertain) [PEGylated CD40L M7_206], the EC50 (CD40 ligand [1]) is reported as 88 nM.

B1: CD40L M8_747 (peptide)
peptide: LAEHAVWSLKCFPDWEWYNINIFGTDDPNHFWVECDGHGKILFPGYPEGYYENHFLHSFELED
modifications: not checked
For B1, the EC50 (CD40 ligand, P29965 [2]) was 197 nM and the Kd (CD40 ligand, P29965 [3]) was 8 nM.

{PEG}-SIQYHWRYSRFKYYFQLIWVYYCHV (reading uncertain) [PEGylated CD40L M1_82] gave an EC50 (CD40 ligand [1]) of 120 nM.

Molecule PRWVRNRFYSLFVPSGVQRGGIHLWFSNWVR (Cys-to-Ser derivative) [CD40L M1_50s] has a Kd (CD40 ligand [4]) of 600 nM.

For PRWVRNRFYCLFVPSGVQRGGIHLWFSNWVR (Base peptide) [CD40L M1_50], the IC50 (CD40 ligand [5]) was 45.8 nM.

B2: CD40L M9_789 (peptide)
peptide: LLAEQAGTLKSELEAMPLGEYEHAARYVSEVECNWKTFAGNYSECDHCHANHQDWITDIELEESELEVNDYHWILHYTHDEDVEDEMRIHDEHEAKFYYFWPNFT
notes: Base peptide
Work on B2 yielded an EC50 (CD40 ligand [6]) of 331 nM and a Kd (CD40 ligand [7]) of 4 nM.

For CHPFSIKNVFSIWNFFSVY [Cys_M1_6S], the “IC50 (read off the curve)” value (CD40 ligand [8]) was about 300 nM, the “EC50, inhibition of CD40L-induced CD86 expression on primary B-cells” value (CD40 ligand [9]) was 306 nM and the EC50 (CD40 ligand [10]) was 0.265 nM. The “IC50 (read off the curve)” value (CD40 ligand [11]) was about 300 nM.

Work on DAAGREFFQIAGLFSFRHHWWQA [CD40L M1_30s] yielded a Kd (CD40 ligand [4]) of 400 nM.

For LPFVPYRSHVLKYGWFFPVQWSIFAVLPFQYLHRSR [CD40L M1_18s], the “EC50, inhibition of CD40L-induced CD86 expression on primary B-cells” value (CD40 ligand [9]) was 743 nM and the “EC50, inhibition of CD40L-induced expression of CD86 on primary B-cells (FACS)” value (CD40 ligand [12]) was about 743 nM.

For LPFVPYRSHVLKYGWFFPVQWSIFAVLPFQYLHRCR (Base peptide) [CD40L M1_18], the EC50 (CD40 ligand [6]) was 350 nM, the “IC50, inhibition of CD40L-induced expression of CD86 on primary B-cells” value (CD40 ligand [12]) was under 0.5 µM and the IC50 (CD40 ligand [5]) was 25 nM. The Kd (CD40 ligand [7]) was 2.3 nM.

B3: M7_189S (peptide)
peptide: LLLFFFSPPFSIFSFSLTTLS
notes: Cys-to-Ser derivative; also called M1-189Sa
For B3, the “EC50, inhibition of CD40L-induced CD86 expression on primary B-cells” value (CD40 ligand [9]) was 176 nM, the EC50 (CD40 ligand [13]) was 176 nM and the EC50 (CD40 ligand [10]) was 0.176 nM.

RIESLEGEMWLINPFNGETLDEHTLEVWLK (modifications not checked) [CD40L M8_748] was tested, and the EC50 (CD40 ligand, P29965 [2]) was 184 nM and the Kd (CD40 ligand, P29965 [3]) was 5 nM.

B4: Cys_M1_6S-Cys_M1_9S heterodimer (peptide)
peptide 1: CHPFSIKNVFSIWNFFSVY
peptide 2: CPPRYNLFFLFRFYSSFRRDYLYF
modifications: disulfide I:1-II:1
notes: also called 6-9 dimer
With B4 the EC50 (CD40 ligand [14]) was 30 nM, the “EC50, inhibition of CD40L-induced CD86 expression on primary B-cells” value (CD40 ligand [9]) was 35 nM and the EC50 (CD40 ligand [10]) was 0.03 nM.

B5: CD40L D1_0014 (peptide)
peptide: PFTWRPTIFWIIQLIVYMRHFGGGGSRSELLRENICRYVSLFDHPLQRNTPLDELRFVIFDTETSGFDLVKDRILSIR
notes: Single-chain fusion of two peptide monomers; also called heterodimeric peptide of CD40L M1-206 and a second monomer with tetra-glycine spacer
For B5, the “fold higher affinity than the base monomeric peptide CD40L M1-206” value (CD40 ligand [15]) was 6 fold.

Molecule HPFSIKNVFCIWNFFSVY (Base peptide) [CD40L M1_6] has an EC50 (CD40 ligand [6]) of 440 nM, an IC50 (CD40 ligand [5]) of 16.3 nM and a Kd (CD40 ligand [7]) of 24 nM.

B6: Cys_M1_6S-Cys_M1_189S heterodimer (peptide)
peptide 1: CHPFSIKNVFSIWNFFSVY
peptide 2: CLLLFFFSPPFSIFSFSLTTLS
modifications: disulfide I:1-II:1
notes: also called 6-189 dimer
B6 was tested, and the “EC50, inhibition of CD40L-induced CD86 expression on primary B-cells” value (CD40 ligand [9]) was 140 nM and the EC50 (CD40 ligand [10]) was 0.000174 nM.

With HPFSIKNVFSIWNFFSVY (Cys-to-Ser derivative) [CD40L M1_6s] the “IC50 (read off the curve)” value (CD40 ligand [8]) was about 300 nM, the “EC50, inhibition of CD40L-induced CD86 expression on primary B-cells” value (CD40 ligand [9]) was 323 nM and the “IC50 (read off the curve)” value (CD40 ligand [11]) was about 300 nM.

B7: CD40L M1_9s (peptide)
peptide: PPRYNLFFLFRFYSSFRRDYLYF
notes: Cys-to-Ser derivative; also called M1-9Sa
In the case of B7, the “EC50, inhibition of CD40L-induced CD86 expression on primary B-cells” value (CD40 ligand [9]) is reported as 564 nM, the EC50 (CD40 ligand [16]) is reported as 564 nM and the EC50 (CD40 ligand [10]) is reported as 0.564 nM.

PPRYNLFFLFRFYCSFRRDYLYF (Base peptide) [CD40L M1_9] was tested, and the EC50 (CD40 ligand [6]) was 370 nM, the IC50 (CD40 ligand [5]) was 81.1 nM and the Kd (CD40 ligand [7]) was 8 nM.

B8: Cys_M1_6S homodimer (peptide)
peptide: CHPFSIKNVFSIWNFFSVY
modifications: also: homodimer: disulfide between the N-terminal cysteines of two chains
notes: also called 6-6 dimer; homodimer of the Phylomer peptide M1-6
For B8, the “EC50, inhibition of CD40L-induced CD86 expression on primary B-cells” value (CD40 ligand [9]) was 48.9 nM, the EC50 (CD40 ligand [10]) was 0.0489 nM and the EC50 (CD40 ligand [17]) was 48.9 nM.

Source: patent publication US20130266605A1, “PEPTIDE INHIBITORS OF CD40L SIGNALING AND USES THEREFOR” (PHYLOGICA LIMITED, priority 2010, published 2013)
